Assay: soluble on expression in E. coli; label from the status in PepcDB or PDB records

| Sequence | soluble on expression in E. coli |
| --- | --- |
| MLYREHHSWIYTWLYRRLGNSADAADLAQDTFIRVITRKSLLEIEQPRAYLTTVAKSLMLNWFNRRNIEQAYLEVLANQPEFEHPSPEQRYLIVETLIEVIQLLDTLPDQIRDVFLHAQLENMNYQQIADQFNLSLSTVKRHIKKAYIHCLTAMLDTDFSC | not soluble |
| MMCTAKKCGIRFQPPAIILIYESEIKGKIRQRIMPVRNFSKFSDCTRAAEQLKNNPRHKSYLEQVSLRQLEKLFSFLRGYLSGQSLAETMEQIQRETTIDPEEDLNKLDDKELAKRKSIMDELFEKNQKKKDDPNFVYDIEVEFPQDDQLQSCGWDTESADEF | soluble |
| MMDFSHIVSEDKIKRAIKDGDFQNLPGMGKPLPKMTRHTCRNRCAWAIVFLEHHHHHH | not soluble |
| MMDKNQLEQEFHKAMLNIYQEALNLPQPYKATRFLQIVNEFGGKEAADKLLSTGEKKTQTGFTELILSGGGVHALKYSMEYLVLQKPWCDLFTEEQLAVARKRLERVGFVFPK | not soluble |
| MMELETGQCTIMELKKENVKELAQVFKTVAFKDTGTWHASEAGMKITVDDGSYQLASVFINPAFFSSFKVREEIVSMKISIKSISEFLSISENSSSSVKVSYPGMFQPVKMLVEDADGWVARGNFTTTLADQELDFEFDDAGVLATYLLKTQVLKEIIKDFDDTSRTVRIQFTKNSLCFTTFGDVGETTVSIPSRSLQMESVKCLEEVEFSYLLSLIQRMTTAFILATKLILRVDERGVLSCQFSIDHGEGNASYIEFLTVPADEEE | not soluble |
| MMGTAWPPPELADVFAQQDIWSAWYAGTPEGLTDAYLNAPNDRPAARRKGLLARLGRWFWGQPTPMGERPSKLHVPLAGAIAAVSANLLFGAPLNLTVDDAATQERLDQLADDTTYAVLREAAEMSAALGGVYLRVVWDQSIQDKPWLVAASPDIAVPEWKWGRLSAVTFWNVIREDANTVVRQLERHEPGWIRHSVWIGSANELGVQMALTDFPETAGLADLVIDGDGIPTGTPKLTAQYIPNLKPNKLWRHLPAAANLGRSDFSGVEALMDALDEAYSDWMRDLRTGKARLLVGTEVLENLGKGQGAHFDIDRELFAPLNLEPGEDKGSVIEQVQFNIRTEEHRALCADLAERIILGAGYSLQTFGVTSEGSGNPTATEIAARERQSLTTRANKTSYWRPALAHLFGVLLEIDRTVFRSQVVPQIPDVEFPDVVTPDPGETARQLNDLNTAGAISTYEKVRRLNPDWRDEQVLEEVARIKADQAEAKPQPTHPARAQEPAGQPEKSPEGSQVNEDVSEPLVAR | not soluble |
| MMIEGLEKMLAKGVDNALLRFGLGKGYLDAGDAERAAEHLQRCVEQDPKYSAGWKLLGKARQAAGDLAGARQAWEQGLATAATHGDKQAEKEMTVFLRKLDRART | not soluble |
| MMKALILAGGSGERFWPLSTPETPKQFLKLFGNKSLMRWTFERVLEEMDPKDVIVVTHKDYVERTKKELPELPDENIIAEPMKKNTAPACFIGTKLADDDEPVLVLPADHRIPDTKKFWKTVKKALDALEKYDGLFTFGIVPTRPETGYGYIEIGEELEEGVHKVAQFREKPDLETAKKFVESGRFLWNSGMFLWKAREFIEEVKVCEPSIYENLKDVDPRNFEELKKAYEKVPSISVDYAVMEKSKKVRVVKADFEWSDVGNWSSVREIEGYTEESDEVILVDSDRVFVKTHNKPIAVVGLSDVIVIDTPNGILICKEEYAQKVREVVKKLFRTS | soluble |
| MMKQIPYGLTDFARIQKDNYYYVDKTMFIERIEMQPAYLFLIRPRRFGKSLTLAMLEAYYDVVYANDFDELFGHLYIGQHPTPKHNCYLIMRFNFSEVSSNVNEVERSFKLHCCSKLRDFVFKYEDLLGKEIWDVLDEEIQQDPGAFLSAINSYASRKGNLPIYLLIDEYDNFTNTILSTYGTEYYQKATHGEGFVRGFFNVIKAATTGTGSALQRMFITGVSPVTMDDVTSGFNIGTNITTDPWFNDLVGFSEAELREMLTYYKEQGVLMQTVDETIVMMKPNYDNYCFSRSRLADCMFNSDMVLYFMKSFVLHGEKPDEIVDPNIRTDFNKLAYLIRLDHGLGENFSVIKEIAEQGEITTDIATHFSALEMTDVRNFKSLLFYFGLLSIKGVDMVGRPILHVPNLVVREQLFSFLIQGYIKHDIFKIDMNRMTMLFENMAFRGDWKPLFNFIAEAIREQSRIREYIEGEAHIKGFLLAYLGMYRYYQLYPEYELNKGFADFLFKPSPSVPVMPPLTYLLEVKYAKAGASEKEIRALADGAREQLLRYSQDELVTEARAKGGLKLITIVWCSWELVLLEEVL | not soluble |
| MMKRQTWPEPTIPVSQQFARGNFPVGIICEHPGEVNAYRYSSEEKRAMEHATEEQVQDLRCAAEVHRQVRRYAQSFIKPGISLLSMTDRIEKKLEELIEKDGLNRGQAFPTGCSLNHVAAHYTPNTGDKCVLMYDDVMKVDFGTQINGRIIDCAWTVAFKDEYEPLLTAVKEATYEGVKQAGIDVRLCDVGAAIQEVMESYEVELNGKVYPVKSIRNLSGHTIAPYVIHGGKSVPIVRGGEATRMEEGELFAIETFGSTGRGFVQEDMECSHYMMVPGGEKTQVRSDKAQQLLRHIHKTYNTLAFARKWLDRDGHDRHLLNLNQLVEAGAVNKYPPLCDIRGCYTAQLEHTLILKPTAKEILSKGDDY | not soluble |
| MMKTLSPLKASLFAILASSTVLVTTVSAEPSQECDHPRSEFHKRGDRMGHDGMHKMFEGLELTDTQKADIKKLFAEQRAARSDDKPTKEERLARRAEMHALITAATFDETQAKALIGAQQEKRQAQAIERMKMQNQIYNLLTPEQQAKFKARFEAHTGKEPRSLEHHHHHH | not soluble |
| MMLAMIKDPFARLGLDREVLTVSQLNGRARVLLEDVFSSIWVEGEISNLSRPASGHVYFTLKDSGAQVRCALFRQSAARVRQALKDGLQVKVRGKVSLFEGRGDYQLILDTVEPAGDGALRLAFDALKAKLSDEGLFSADRKVALPLHPQRIGIISSPTGAVIRDIISVFRRRAPRVELTLIPTAVQGREAINQIVRALKLADARGFDALILARGGGSLEDLWCFNEEAVARAIDACVTPIVSAVGHETDVSISDFVADVRAPTPSAAAELLAPDSSDLHRRVDNLHRRLVSRMQDRLMRERLRLEGISRRLRHPGERLRQQSQRLDDLDMRLRRAFEQSMHKKQVRLAHMESRLTAQHPGRTLAFLRQRLDALAERLPRAIREQIKVRKLQLQSQMQTLNVVSPLATLGRGYSILLDERGHAIRNAAQTQPGQRLTARLGEGELQVRVEDNHLTPVTLSLLD | not soluble |
| MMLITDTGVPERYIDTDEWGGEVMLRLDDGWCAALDRNTMMCTIYEKRPLICREFEAGAEDCLTERKGIATAYLLEHHHHHH | not soluble |
| MMLRTEEMILNVGPQHPSTHGVFRLILKIDGEIIQEATPVIGYLHRGTEKIAEGLQYTQIIPYTDRMDYLSAMTNNYVLCHAVETMMGIEVPERAEYLRVLAMELGRIASHLVWWGTYLLDLGATSPFLYAFREREMIINLLNELSGARLTFNYMRIGGVKWDAPDGWIDKVKQFVPYMREKLHGYHELVTGNEIFRQRVTGVGRYTKEEAISYSLSGVNLRSTGVKWDLRKDEPYSIYDRFDFDVPVRDSGDCLARYECRMAEIEQSLCIIEQACEQFPPEGPIMGKVPRIIKAPPGETFVRIEAPRGEIGCYIASDGKKEPYRLKFRRPSFYNLQILPKLLKGENLANVIAILGSIDIVLGEVDG | not soluble |
| MMLSALVYTYPYKRSSGFERLRDRIHRKRHRHQKPSVMNETDELYEMSMVTQKSDDDSDLASRIRSEKSIPSTLTTPPTVTYHRRHHHHHKKNRREKNEELCESQRKIVELNTQSHEFDPPFVVEVRCLNSQSPIGSLLSGQEQTCFKGMLRCVQQYADVHVSRRSVGSIHWHPFTIPDAPISCQCMWPVDRYGHQEF | soluble |
| MMMDILMYLFETYVHSDADLQVDQDQLEDELLRAGFHQKDIYKALHWLEELAALQQTDAQTAIAKSAPTSMRIYAPEEIERLDLESRGFLLFLEHINVLTPETREMVIDRVMGLETDEFELDDLKWIILMVLFNVPGNENAYTVMEELLYSKEQGILH | not soluble |
| MMNALELQALRRIFDMTIEECTIYITQDNNSATWQRWEAGDIPISPEIIARLKEMKARRQRRINAIVDKINNRIGNNTMRYFPDLSSFQSIYTEGDFIEWKIYQSVAAELFAHDLERLC | soluble |
| MMNEKNPPLVSILIPTYNRPHYFKIALESALAQTYSNIEIIIGDDSTNDETATLIREQYLPNYKNITYIRNTPTLGQFHNDLMLIEKSNGEYINFLMDDDVFYKHKIQKMMTYFEQDPNKNLALVTSYRVRIDDHGNLIGDSHPTQRLYSEDTPLNGIFLGNWMLKGGHNIIGEPTTTLFRKELLTEPFGTLKERQYSCSVDMASWISLLSKGNAIYISEPLSQFRYHAGQQIHNKLLQGCEDFTHLVITAKEYGFLQNTTDYRAALLSAYQWCKSSLKYYLHQLDIFPDAHVRLSHCLDIIIKELNNLEHHHHHH | soluble |
| MMNKNKKLMVMAGGTGGHVFPGLAVAKQLQQQGWQIRWLGTADRMEAELVPKHGIEIDFIQVKGLRGQGLMRLLKAPFQIVNAILQARRHLLTYQPDAVLGMGGYVSGPGGIAAWLLGIPVVLHEQNAVAGLTNQWLAKIARRVFQAFPGAFADASVVGNPVRQDVVQLAAPEQRFATRNGAIRILVMGGSQGARILNQTLPAVMAALGEGYEIRHQAGKNSQQDVAEAYAAAGVESAQVTEFIDDVADAYAWADLLICRSGALTVSEVSAAGVGAIFIPFMHKDRQQALNADHLVACGAAKMIEQPELSVEKLTQMVRELDRAQLLSMAQKARQAAKLDADKVVAQAIIAITE | not soluble |
| MMRKLKTLPPTLRDKNRYIAFEIISDGDFTKDEVKELIWKSSLEVLGETGTAIVKPWLIKFDPNTKTGIVRSDREYVEYLRFALMLVSEFNGKRLIIRTLGVSGTIKRLKRKFLAKYGWK | soluble |
| MMRRILLKSIKFYRIYLSPLKRNACCKFIPTCSQYAIDAIEKYGALKGSFMAVKRILRCNPFSKGGYDPVKLEHHHHHH | not soluble |
| MMSIAQVRSAGSAGNFYTDKDNYYVLGSMGERWAGRGAEQLGLQGSVDKDVFTRLLEGRLPDGADLSRMQDGSNRHRPGYDLTFSAPKSVSMMAMLGGDKRLIDAHNQAVDFAVRQVEALASTRVMTDGQSETVLTGNLVMALFNHDTSRDQEPQLHTHAVVANVTQHNGEWKTLSSDKVGKTGFIENVYANQIAFGRLYREKLKEQVEALGYETEVVGKHGMWEMPGVPVEAFSGRSQTIREAVGEDASLKSRDVAALDTRKSKQHVDPEIKMAEWMQTLKETGFDIRAYRDAADQRADS | soluble |
| MMSISQLLGCISKQVDGQYIAQYEELTLRSVFQPIYKKDLSIIGLEALVRISTADGSMIRPDLFFQSPSISEHVQLNVERLSRLIHIKNFGQSRYRNKKLFLNVLPRAAEMLAKDLSYSHLLKQVICEADLCREQIVMELVELSAGDESFLYKATKELSDGGFKLAIDDYGINASTIERVKCVRPDIIKMDRSLLLKYEDGDFSALIEALALAKELSSKTVIEGIETEHQLNLMKKLGFDMYQGYLLAMPQTLEMYEEAKTA | not soluble |
| MMSTLALVSLAIFGIAVVCAAPKPATVPVANEEDYLAALYGFEAPGSQFKGAPLQSKRHISPSYDVEIDAGNMRNLLDIGKRSAPMASDYGNQFQMYNRLIDAGKKKRSPAISPAYQFENAFGLSEALERAGRR | not soluble |
| MMTESHGYLSNNLPVKIINDIIYATQLVEDLVLGKIKIVDFLKSYNNFYCWLGFDELPQSEKIKFLSYLNILSIHKEIQDETVNRVYTD | not soluble |

From the DeepSol protein solubility set
